Assay [1] deals with Cetuximab light chain Q124E_V133W_S176T_T178L_T180E. As to the kind of experiment: SMCA co-expression, LC-MS; competing light chain m2.
The target in assay [2] is Cetuximab light chain F116A_V133G_L135V_S176R. As to the kind of experiment: SMCA co-expression, LC-MS; competing light chain m36; estimated change (***).
Assay [3] shares this target. In words: SMCA co-expression, LC-MS; competing light chain m36.
Assay [4] addresses Cetuximab light chain V133G_N137K_S174R_S176R. In words: SMCA co-expression, LC-MS; competing light chain m16; estimated change (***).
The target is the same in assay [5]. As to the kind of experiment: SMCA co-expression, LC-MS; competing light chain m24.
Assay [6] addresses Cetuximab light chain Q124R_V133A_S176T_T178R. As to the kind of experiment: SMCA co-expression, LC-MS; competing light chain m12.
Assay [7] shares this target. As to the kind of experiment: SMCA co-expression, LC-MS; competing light chain m12; estimated change (***).
Assay [8] has as its target tissue factor (TF) antigen (UniProt P13726). As to the kind of experiment: SPR (ProteOn XPR36), Fab captured by His tag on anti-penta-His surface, TF injected as analyte; against wild-type D3H44 Fab; * = estimated from a Fab differing only in the L chain tag.
Assay [9] shares this target. As to the kind of experiment: SPR (ProteOn XPR36), Fab captured by His tag on anti-penta-His surface, TF injected as analyte, 1:1 fit; * = estimated from a Fab differing only in the L chain tag.
The target in assay [10] is D3H44 light chain Q124E_V133E. In words: SMCA: four chains co-expressed in CHO-3E7, protein A, LC-MS; competing light chain m45.
For assay [11], the target named is D3H44 light chain Q124E_V133E. As to the kind of experiment: SMCA: four chains co-expressed in CHO-3E7, protein A, LC-MS; competing light chain m35.
The target in assay [12] is D3H44 light chain Q38R_Q124R_Q160K_T178R. In words: SMCA: four chains co-expressed in CHO-3E7, protein A, LC-MS; competing light chain m41.
The target of assay [13] is D3H44 light chain Q124E_Q160E_T178E. In words: SMCA: four chains co-expressed in CHO-3E7, protein A, LC-MS; competing light chain m35.
In assay [14] the target is D3H44 light chain F116A_Q124R_L135V_T178R. As to the kind of experiment: SMCA, LC-MS of 4 co-expressed chains; competing light chain m29.
Assay [15] has the same target. As to the kind of experiment: SMCA, LC-MS; change vs wild-type bispecific; competing light chain m29.
For assay [16] the target is unchanged. In words: SMCA: 2 heavy + 2 light chains co-expressed, protein A, LC-MS; competing light chain m41.
Assay [17] shares this target. In words: SMCA, LC-MS; change vs wild-type bispecific; competing light chain m45.
The target of assay [18] is D3H44 light chain F116A_V133G_L135V_S176R. In words: SMCA co-expression, LC-MS; competing light chain m36; estimated change (***).
Assay [19] has the same target. In words: SMCA co-expression, LC-MS; competing light chain m32; estimated change (***).
Assay [20] has the same target. As to the kind of experiment: SMCA co-expression, LC-MS; competing light chain m36.
For assay [21] the target is unchanged. In words: SMCA co-expression, LC-MS; competing light chain m32.
Assay [22] shares this target. In words: SMCA: 2 heavy + 2 light chains co-expressed, protein A, LC-MS; competing light chain m58.
Assay [23] addresses D3H44 light chain Q124R_V133A_S176T_T178R. In words: SMCA co-expression, LC-MS; competing light chain m12.
For assay [24] the target is unchanged. In words: SMCA co-expression, LC-MS; competing light chain m8.
The target in assay [25] is D3H44 light chain Q124R_T178R. As to the kind of experiment: SMCA: LC-MS of protein A purified product after co-expression of H1, H2, L1, L2 in CHO-3E7; competing light chain m51.
The target in assay [26] is D3H44 light chain Q124R_T178R. In words: SMCA, LC-MS; change vs wild-type bispecific; competing light chain m27.
Assay [27] addresses D3H44 light chain Q124R_T178R. As to the kind of experiment: SMCA, LC-MS of 4 co-expressed chains; competing light chain m27.
Assay [28] has as its target D3H44 light chain Q124E_Q160E_T178E. As to the kind of experiment: SMCA, LC-MS; estimated change vs similar wild type (***); competing light chain m26.
Assay [29] deals with D3H44 light chain S131E. In words: SMCA: LC-MS of protein A purified product after co-expression of H1, H2, L1, L2 in CHO-3E7; competing light chain m53.
The target of assay [30] is D3H44 light chain Q124E_S176L_T180E. As to the kind of experiment: SMCA, LC-MS; change vs wild-type bispecific; competing light chain m26.
The target of assay [31] is D3H44 light chain Q124E_Q160E_T178E. As to the kind of experiment: SMCA: LC-MS of protein A purified product after co-expression of H1, H2, L1, L2 in CHO-3E7; competing light chain m52.
For assay [32], the target named is D3H44 light chain Q124E_S131T_T178Y_T180E. The description is as above.
Assay [33] deals with D3H44 light chain Q124E_S176L_T180E. In words: SMCA: 2 heavy + 2 light chains co-expressed, protein A, LC-MS; competing light chain m16.
For assay [34] the target is unchanged. In words: SMCA, LC-MS of 4 co-expressed chains; competing light chain m26.
For assay [35], the target named is D3H44 light chain Q124E_Q160E_T178E. The assay is described as above.
Assay [36] has the same target. As to the kind of experiment: SMCA, LC-MS of 4 co-expressed chains; competing light chain m42.
For assay [37] the target is unchanged. In words: SMCA, LC-MS; change vs wild-type bispecific; competing light chain m42.
Assay [38] concerns the target Trastuzumab light chain Q38R_S131K. In words: SMCA: four chains co-expressed in CHO-3E7, protein A, LC-MS; competing light chain m26.
For assay [39], the target named is Trastuzumab light chain Q38E_Q124E_Q160E_T180E. As to the kind of experiment: SMCA: four chains co-expressed in CHO-3E7, protein A, LC-MS; competing light chain m39.
In assay [40] the target is cetuximab light chain of SMCA design 9820-9823_1 (trastuzumab/cetuximab bispecific system), Q38R_Q124R_Q160K_T178R. In words: SMCA: H1, H2, L1 and L2 co-expressed in CHO-3E7 cells, protein A purification, deglycosylation, LC-MS; competing light chain is the trastuzumab light chain (L1).
Assay [41] has the same target. As to the kind of experiment: SMCA, LC-MS after co-expression of the four chains; difference from the wild-type trastuzumab/cetuximab construct at the same DNA ratio.
For assay [42], the target named is trastuzumab light chain of SMCA design 9820-9823_1 (trastuzumab/cetuximab bispecific system), Q38E_Q124E_Q160E_T180E.
For assay [43] the target is unchanged. In words: SMCA, LC-MS after co-expression of the four chains; difference from the wild-type trastuzumab/cetuximab construct at the same DNA ratio.

One may read the Kd as a measure of binding affinity in units of concentration.

In turn, Cetuximab heavy chain L124A_L143F_Q179K came in with a Change in % H2L2 Pairing (over all H2 species) with respect to wild type in assay [1] of 1.7%.

Turning to Cetuximab heavy chain L124E_A139W, in assay [2], the Change in % H2L2 Pairing (over all H2 species) with respect to wild type was 17%. In assay [3], this substance had a % H2L2 Pairing (over all H2 species) of 42.1%.

Cetuximab heavy chain L124E_H172T: the Change in % H2L2 Pairing (over all H2 species) with respect to wild type in assay [4] is 1.6%. In assay [5], this substance came in with a % H2L2 Pairing (over all H2 species) of 44% and a Change in % H2L2 Pairing (over all H2 species) with respect to wild type of 14.4%.

“Cetuximab heavy chain L124W_L143E_K145T_Q179E” showed a % H2L2 Pairing (over all H2 species) in assay [6] of 58.1%. Further, the Change in % H2L2 Pairing (over all H2 species) with respect to wild type in assay [7] is 33%.

Consider “D3H44 H1L1 Fab heterodimer of LCCA Set # 9645 (H1 L143E_K145T_Q179E, L1 Q124K_T178R)”, for which the change in median KD compared to wild type, -(log(KD design)-log(KD wt)) in assay [8] was 0.05 log. For the same substance, the Kd in assay [9] was 0.14 nM.

As to “D3H44 full-length heavy chain L143R (from UniProt P0DOX5 2-448)”, the % H1L1 Pairing (over all H1 species) was found to be 89.2% in assay [10] and 97.1% in assay [11].

“D3H44 full-length heavy chain Q39E_L143E_K145T_Q179E (from UniProt P0DOX5 2-448)” gave a % H1L1 Pairing (over all H1 species) in assay [12] of 86.6%.

Turning to “D3H44 full-length heavy chain S186K (from UniProt P0DOX5 2-448)”, in assay [13], the % H1L1 Pairing (over all H1 species) came out at 98.2%.

Regarding “D3H44 heavy chain A139W_L143E_K145T_Q179E (from UniProt P0DOX5 2-448)”, the % H1L1 Pairing (over all H1 species) in assay [14] and in assay [16] was 100% in each case. Also, the Change in % H1L1 Pairing (over all H1 species) with respect to wild type in assay [15] was determined as 41.9%; in assay [17], 58.1%.

As for “D3H44 heavy chain L124E_A139W (from UniProt P0DOX5 2-448)”, the Change in % H1L1 Pairing (over all H1 species) with respect to wild type is 25.8% in assay [18] and 43.3% in [19]. The % H1L1 Pairing (over all H1 species) in assay [20] is 46.8%; in assay [21], 100%; in [22], 100%.

As for “D3H44 heavy chain L124W_L143E_K145T_Q179E (from UniProt P0DOX5 2-448)”, in assay [23], the % H1L1 Pairing (over all H1 species) amounted to 47.7%. Further, the Change in % H1L1 Pairing (over all H1 species) with respect to wild type in assay [23] amounted to 7.1%; in assay [24], 40.4%.

Consider “D3H44 heavy chain L143E_K145T_Q179E_S188L (from UniProt P0DOX5 2-448)”, for which the % H1L1 Pairing (over all H1 species) in assay [25] and in [27] was 94.3% throughout. For the same substance, the Change in % H1L1 Pairing (over all H1 species) with respect to wild type in [26] is 32.4%.

With “D3H44 heavy chain S186K (from UniProt P0DOX5 2-448)”, the Change in % H1L1 Pairing (over all H1 species) with respect to wild type in assay [28] was 43.3%; in [30] it was 52.5%; in assay [37], 60.9%. Further, the % H1L1 Pairing (over all H1 species) in [29], in assay [31], in [32], in [33], in assay [34] and in [35] was 100% each time. The % H1L1 Pairing (over all H1 species) in assay [36] turned out to be 98.2%.

Substance “Trastuzumab full-length heavy chain Q39E_K145T_Q179E (from UniProt P0DOX5 2-448)” returned a % H2L2 Pairing (over all H2 species) in assay [38] of 94.3%.

On to “Trastuzumab full-length heavy chain Q39R_H172R_Q179K (from UniProt P0DOX5 2-448)”, for which the % H2L2 Pairing (over all H2 species) in assay [39] came out at 100%.

Substance “cetuximab full-length heavy chain of SMCA design 9820-9823_1 (trastuzumab/cetuximab bispecific system), Q39E_L143E_K145T_Q179E” displayed a % H2L2 Pairing (over all H2 species) in [40] of 52.3%. For the same substance, the Change in % H2L2 Pairing (over all H2 species) with respect to wild type in assay [41] is 22.7%.

As to “trastuzumab full-length heavy chain of SMCA design 9820-9823_1 (trastuzumab/cetuximab bispecific system), Q39R_H172R_Q179K (from UniProt P0DOX5 2-448)”, the % H1L1 Pairing (over all H1 species) in [42] was determined as 100%. In addition, in [43], the Change in % H1L1 Pairing (over all H1 species) with respect to wild type came out at 6%.

Source of the values: US11306156.
